According to patent US20220204610A1, “PROTEIN BINDERS FOR IRHOM2” (NEW YORK SOCIETY FOR THE RELIEF OF THE RUPTURED AND …, priority 2019, published 2022):

Experiments:
[1] = biological target: T1, human iRhom2 (Homo sapiens, UniProt Q6PJF5); assay: Peptide binding ELISA, target region determination (Example 9); conditions: antibody 3 μg/ml; peptide coated at 10 μg/ml; normalized to IgM isotype control
T1 construct: made in house; host or cells: chemical synthesis (Fmoc solid phase peptide synthesis), no expression host
T1 sequence (Q6PJF5 431-459): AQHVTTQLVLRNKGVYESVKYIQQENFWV
Description: (§1) Next, peptide binding ELISA analyses were performed to verify whether the purified antibody 4H8-E3 of the invention recognizes any of the peptides that were administered to those animals the hybridoma clone 4H8 was derived from, thereby shedding light on the target region being recognized by the antibody 4H8-E3 of the invention.
(§2) In brief, on day 1, Nunc black MaxiSorp® 96-well plates (Thermo Fisher Scientific, USA) were coated overnight with 100 μl per well of single biotinylated peptides 1 to 11 as well as mixes of peptides 1 to 4 (Mix A), 5 to 7 (Mix B), and 8 to 11 (Mix C) at 10 μg/ml TBS each (thus, the final concentration of each peptide in mixes 1 to 4 and 8 to 11 was 2.5 μg/ml versus 3.3 μg/ml in mix 5 to 7) at 4° C. On day 2, peptide solutions were removed and MaxiSorp® plates were blocked with 300 μl per well of Pierce protein-free (TBS) blocking buffer (Thermo Fisher Scientific, USA) at room temperature for 1.5 hours. The blocking buffer was then removed and plates were washed 4 times with 350 μl per well of TBS-T (Carl Roth, Germany) on a 96-head plate washer (Tecan Group, Switzerland). Afterwards, 100 μl per well of TBS as blank control, mouse anti-biotin antibody (clone BN-34, Sigma-Aldrich, USA) at 0.3 μg/ml TBS as coating control, the purified antibody 4H8-E3 of the invention at 3 μg/ml TBS, and mouse IgM antibody (clone MOPC 104E, Sigma-Aldrich, USA) as isotype control to the purified antibody 4H8-E3 of the invention at 3 μg/ml TBS were added to wells pre-coated with single peptides 1 to 11 or respective mixes and incubated at room temperature for 4 hours. Subsequently, the plates were washed 4 times with 350 μl per well of TBS-T (Carl Roth, Germany) on a 96-head plate washer (Tecan Group, Switzerland) again and, protected from direct light, were incubated with 100 μl per well of AP-conjugated goat anti mouse IgG/IgG/IgM F(ab′)2 fragment (Sigma-Aldrich, USA) diluted 1:2,000 in TBS for 1 hour at room temperature. Following another round of 4 washing steps with 350 μl per well of TBS-T (Carl Roth, Germany) on a 96-head plate washer (Tecan Group, Switzerland) and careful removal of all buffer traces after the fourth cycle, 100 μl of AttoPhos substrate solution (Promega, USA) were added for incubation in the dark and at room temperature for 1 hour. Using an infinite M1000 PRO (Tecan Group, Switzerland) microplate reader, the fluorescence of each well was collected at an excitation wavelength of 435 nm and an emission wavelength of 555 nm.

[2] = test system: human iRhom2; assay: as above; conditions: antibody 3 μg/ml, normalized to IgM isotype control
Description: as §1, §2

[3] = peptides coated individually or as mix

B1: 4H8-E3: Mouse IgM monoclonal antibody against the human iRhom2 juxtamembrane domain adjacent to TMD1; HC VD SEQ ID NO 33, LC VD SEQ ID NO 40 (antibody, V domains shown)
VH: EVQLQQSGPELVKPGASVKISCKASGYTFTDYYMNWVKQSHGKSLEWIGDINPNNGGTSYNQKFKGKATLTVDKSSNTAYMEFRSLTSEDSAVYYCARRGYYGVDYWGQGTTLTVSS
VL: NIVMTQSPKSMSMSVGERVTLNCKASENVGTYVSWYQQKPEQSPKLLIFGASNRYTGVPDRFIGSGFATDFTLTISSVQAEDLADYHCGQSYSYPYTFGGGTKLEIK
modifications: IgM constant regions; antibody sequence
[1]
  binding to single peptide 3 (amino acids 431 to 459 of human iRhom2 juxtamembrane domain): strong binding
[2]; biotinylated peptides coated at 10 μg/ml
  binding to Mix A consisting of peptides 1, 2, 3 and 4: strong binding
[2]; [3]
  binding to peptides 5, 6 and 7 (large extracellular loop): no binding
  binding to peptides 8, 9, 10 and 11 (C-terminal tail of human iRhom2): no binding
